Test results published in patent US20220402989A1 (Regeneron, published 2022).

Tests used:
[1] = target: T1, human PD-1 expressed with a C-terminal myc-myc-hexahistidine tag (human); assay: SPR (Biacore), antibody captured via anti-human Fc, hPD-1.mmH in solution, 25 C
T1 construct: also called hPD-1.mmH; hPD-1.mmh
Method: The CM5 Biacore sensor surface was derivatized by amine coupling with a monoclonal mouse anti-human Fc antibody (GE, #BR-1008-39). All Biacore binding studies were performed in a buffer composed of 0.01M HEPES pH 7.4, 0.15M NaCl, 3 mM EDTA, 0.05% v/v Surfactant P20 (HBS-EP running buffer). […] Antibody-reagent association was monitored for 4 or 5 minutes, while dissociation in HBS-EP running buffer was monitored for 10 minutes. […] All binding kinetics experiments were performed at 25° C.
Kinetic association (kₐ) and dissociation (kd) rate constants were determined by fitting the real-time sensorgrams to a 1:1 binding model using Scrubber 2.0c curve fitting software. Binding dissociation equilibrium constants (KD) and dissociative half-lives (t½) were calculated from the kinetic rate constants as: […]

[2] = target: human PD1 (amino acids M1-L288 of NP_005009.2 with a 2Q=>E mutation) stably expressed on engineered reporter … (human, UniProt Q15116 25-288); assay: cell-based or functional assay
[3] = target: T2, human PD1 expressed endogenously on YT/STAT5 luc/Cl4 cells (human, UniProt Q15116 25-288); assay: flow cytometry (FACS) titration on YT/STAT5 luc/CL4 cells with endogenous hPD1, APC anti-human Fc-gamma secondary, MFI_APC
T2 construct: whole, on cells; also called hPD1; PD1+ cells
Method: To compare hPD1 binding of αhPD1-IL2Rα-IL2 proteins to their respective parental anti-hPD1 antibodies, YT/STAT5 luc/Cl4 cells expressing endogenous levels of hPD1 were washed twice with FACS wash (PBS+2% FBS) and resuspended at 1×10\hat{ }6 cells/ml in FACS wash. Cells (100 μl/well) were then plated in 96 well U bottom plates. Cells were spun down (1200 RPM, 5 minutes) and resuspended in 100 μl/well of the various antibody dilutions listed in mAb clone IDs. The antibody titrations were prepared starting at 20 μg/ml with a 6-fold dilution using FACS wash. Cells were incubated with the antibodies for 30 minutes at 4° C. The unbound antibodies were then removed by washing the cells twice using FACS wash. The cells were then resuspended in 100 μl/well of 1:200 dilution of APC-anti-human Fcγ secondary antibody. The cells were incubated for 30 minutes at 4° C. The unbound antibodies were then removed by washing the cells twice using FACS wash. The cells were then resuspended in 160 μl/well of FACS wash and run to test binding using BD FACSCanto™ Flow Cytometer.

T2 sequence (Q15116 25-288): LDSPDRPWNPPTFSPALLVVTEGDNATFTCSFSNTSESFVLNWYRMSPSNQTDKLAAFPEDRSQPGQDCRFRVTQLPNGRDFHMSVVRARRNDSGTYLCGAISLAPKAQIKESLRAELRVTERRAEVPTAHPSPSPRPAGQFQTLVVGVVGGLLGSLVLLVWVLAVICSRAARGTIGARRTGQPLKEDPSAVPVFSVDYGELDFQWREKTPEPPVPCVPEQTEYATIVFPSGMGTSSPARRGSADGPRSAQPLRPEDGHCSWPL
Sequence of human PD1 (amino acids M1-L288 of NP_005009.2 with a 2Q=>E mutation) stably expressed on engineered reporter … (Q15116 25-288, change not shown): as the sequence (Q15116 25-288) above
T1 sequence (chain, as listed by the source limits assumed): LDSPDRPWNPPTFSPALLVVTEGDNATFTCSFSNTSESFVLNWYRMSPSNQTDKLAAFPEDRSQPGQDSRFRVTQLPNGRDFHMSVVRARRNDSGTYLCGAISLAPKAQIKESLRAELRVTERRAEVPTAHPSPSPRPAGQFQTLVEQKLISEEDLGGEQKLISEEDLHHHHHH

| 90 nM or 100 nM hPD-1.mmH Bind (RU) [1] | Kd [1] | koff [1] | kon [1] | t1/2 [1] | Fold induction, AP1-Luc PD1 antagonistic assay [2] | EC50 [3] | EC50 (M), AP1-Luc PD1 antagonistic assay [2] | Binder |
| --- | --- | --- | --- | --- | --- | --- | --- | --- |
| 124 RU | 3.1 nM | 0.000427 s⁻¹ | 138000 M⁻¹ s⁻¹ | 27.1 min | 1.29 fold | 5.69 nM | – | mAb29512 (antibody, V domains shown, The full chains are those of H4H29512 (human IgG4 Fc with S108P); also called H4H29512) VH: QVQLVQSGTEVRKPGSSVKVSCKTSGVTFNNYAITWVRQAPGQGLEWMGGIIPVFSPPNYAQKFQGRVTITADESTNTAYMELNSLRSDDTAIYFCAREGERGYTYGYDYWGQGTLVTVSS VL: not shown |
| 52.7 RU | 8.95 nM | 0.00123 s⁻¹ | 137000 M⁻¹ s⁻¹ | 9.4 min | 1.24 fold | 3.48 nM | – | mAb9048 (antibody, V domains shown, The full chains are those of H4H9048 (human IgG4 Fc with S108P); also called H4H9048) VH: QVQLVQSGAEVKRPGSSVKVSCKVSGVTFRNFAIIWVRQAPGQGLEWMGGIIPFFSAANYAQSFQGRVTITPDESTSTAFMELASLRSEDTAVYYCAREGERGHTYGFDYWGQGTLVTVSS VL: not shown |
| 88.7 RU | 2.56 nM | 0.000253 s⁻¹ | 98800 M⁻¹ s⁻¹ | 45.7 min | 19.2 fold | 0.774 nM | 3.67e-09 M | REGN2810 (antibody, human IgG4 S228P, kappa, V domains shown, Human IgG4 Fc with the S108P hinge mutation; also called mAb7798; cemiplimab) VH: EVQLLESGGVLVQPGGSLRLSCAASGFTFSNFGMTWVRQAPGKGLEWVSGISGGGRDTYFADSVKGRFTISRDNSKNTLYLQMNSLKGEDTAVYYCVKWGNIYFDYWGQGTLVTVSS VL: DIQMTQSPSSLSASVGDSITITCRASLSINTFLNWYQQKPGKAPNLLIYAASSLHGGVPSRFSGSGSGTDFTLTIRTLQPEDFATYYCQQSSNTPFTFGPGTVVDFRR |
